Measured values reported in paper PMC10786891, “Massively parallel profiling of RNA-targeting CRISPR-Cas13d”.
Substitutions are numbered along the chain they refer to. Numbers in names are those of the source.

T1: EsCas13d, nuclease-dead (Eubacterium siraeum, UniProt B0MS50, R295A;H300A;R849A;H854A)
T1 sequence: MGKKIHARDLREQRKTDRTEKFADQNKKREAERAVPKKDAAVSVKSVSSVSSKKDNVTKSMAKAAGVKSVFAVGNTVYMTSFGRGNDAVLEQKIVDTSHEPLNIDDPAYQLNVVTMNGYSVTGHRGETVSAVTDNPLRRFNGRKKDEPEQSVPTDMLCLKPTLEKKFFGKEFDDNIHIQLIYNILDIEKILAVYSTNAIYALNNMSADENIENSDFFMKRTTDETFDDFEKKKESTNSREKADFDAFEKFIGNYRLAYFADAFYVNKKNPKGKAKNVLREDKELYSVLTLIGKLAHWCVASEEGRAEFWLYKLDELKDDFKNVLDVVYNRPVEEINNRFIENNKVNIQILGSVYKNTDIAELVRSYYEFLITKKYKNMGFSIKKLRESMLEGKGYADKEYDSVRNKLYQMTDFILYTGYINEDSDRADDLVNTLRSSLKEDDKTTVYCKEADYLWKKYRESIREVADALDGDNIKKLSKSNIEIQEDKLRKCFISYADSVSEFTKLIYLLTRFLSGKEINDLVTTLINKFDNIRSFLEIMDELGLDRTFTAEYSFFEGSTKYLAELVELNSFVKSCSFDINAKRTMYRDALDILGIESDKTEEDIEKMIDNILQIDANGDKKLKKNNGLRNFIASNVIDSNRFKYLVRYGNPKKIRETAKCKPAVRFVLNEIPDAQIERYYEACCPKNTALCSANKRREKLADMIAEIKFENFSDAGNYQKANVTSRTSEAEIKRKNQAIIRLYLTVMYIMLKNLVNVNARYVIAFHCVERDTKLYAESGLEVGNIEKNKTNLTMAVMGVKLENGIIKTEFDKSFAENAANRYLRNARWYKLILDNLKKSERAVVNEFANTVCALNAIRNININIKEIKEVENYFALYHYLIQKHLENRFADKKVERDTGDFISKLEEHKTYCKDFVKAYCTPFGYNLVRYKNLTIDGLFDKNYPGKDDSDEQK

B1: target 1 A14G,C22U (mixed)
RNA 1: CACCCGUGCAAAAAUGCAGGGGUCUAAAACUGAGCGGAUAACCUCUCUAUGG
RNA 2: GGGAAUGGAUCCACAUCUACGAAUUCGUAUCAUAGAGGGGUUAUCCGCUCACCGAGAUCGGAAGAGCACACGU
B2: target 1 C6U,A20U (mixed)
RNA 1: B1 RNA 1
RNA 2: B1 RNA 2 with U30C, A32U, G38A, C46U
B3: target 1 U3A,G13A (mixed)
RNA 1: B1 RNA 1
RNA 2: B1 RNA 2 with U30C, G38A, G39A, U49A
B4: target 1 insG 3' of 10,insA 3' of 3 (mixed)
RNA 1: B1 RNA 1
RNA 2: GGGAAUGGAUCCACAUCUACGAAUUCGUACCAUAGAGAGGUUGAUCCGCUACACCGAGAUCGGAAGAGCACACGU
B5: target 2 MT 5'PFS UUU 3'PFS CUC (mixed)
RNA 1: CACCCGUGCAAAAUUGCAGGGGUCUAAAACCUUCUCCAAAUUGUUUCAUCCU
RNA 2: GGGAAUGGAUCCACAUCUACGAAUUCUUUAGGAUGAAACAAUUUGGAGAAGCUCAGAUCGGAAGAGCACACGU
B6: target 2 MT 5'PFS GUC 3'PFS ACG (mixed)
RNA 1: B5 RNA 1
RNA 2: B5 RNA 2 with U27G, U29C, C52A, U53C, C54G
B7: target 2 MT 5'PFS GUC 3'PFS ACA (mixed)
RNA 1: B5 RNA 1
RNA 2: B5 RNA 2 with U27G, U29C, C52A, U53C, C54A
B8: target 2 MT 5'PFS GCA 3'PFS CCG (mixed)
RNA 1: B5 RNA 1
RNA 2: B5 RNA 2 with U27G, U28C, U29A, U53C, C54G
B9: target 2 MT 5'PFS AUG 3'PFS AAU (mixed)
RNA 1: B5 RNA 1
RNA 2: B5 RNA 2 with U27A, U29G, C52A, U53A, C54U
B10: target 2 MT 5'PFS CGA 3'PFS ACA (mixed)
RNA 1: B5 RNA 1
RNA 2: B5 RNA 2 with U27C, U28G, U29A, C52A, U53C, C54A
B11: target 2 MT 5'PFS UUU 3'PFS CUG (mixed)
RNA 1: B5 RNA 1
RNA 2: B5 RNA 2 with C54G
B12: target 2 MT 5'PFS GUC 3'PFS ACU (mixed)
RNA 1: B5 RNA 1
RNA 2: B5 RNA 2 with U27G, U29C, C52A, U53C, C54U
B13: target 2 MT 5'PFS CGC 3'PFS CGU (mixed)
RNA 1: B5 RNA 1
RNA 2: B5 RNA 2 with U27C, U28G, U29C, U53G, C54U
B14: target 2 MT 5'PFS AUG 3'PFS AAA (mixed)
RNA 1: B5 RNA 1
RNA 2: B5 RNA 2 with U27A, U29G, C52A, U53A, C54A
B15: target 2 MT 5'PFS GCA 3'PFS CCA (mixed)
RNA 1: B5 RNA 1
RNA 2: B5 RNA 2 with U27G, U28C, U29A, U53C, C54A
B16: target 2 MT 5'PFS UUG 3'PFS AUC (mixed)
RNA 1: B5 RNA 1
RNA 2: B5 RNA 2 with U29G, C52A
B17: target 2 MT 5'PFS GUC 3'PFS CAG (mixed)
RNA 1: B5 RNA 1
RNA 2: B5 RNA 2 with U27G, U29C, U53A, C54G
B18: target 2 MT 5'PFS CUG 3'PFS AGU (mixed)
RNA 1: B5 RNA 1
RNA 2: B5 RNA 2 with U27C, U29G, C52A, U53G, C54U
B19: target 2 MT 5'PFS UUG 3'PFS CUU (mixed)
RNA 1: B5 RNA 1
RNA 2: B5 RNA 2 with U29G, C54U
B20: target 2 MT 5'PFS CGA 3'PFS ACG (mixed)
RNA 1: B5 RNA 1
RNA 2: B5 RNA 2 with U27C, U28G, U29A, C52A, U53C, C54G
B21: target 2 MT 5'PFS GUC 3'PFS CAC (mixed)
RNA 1: B5 RNA 1
RNA 2: B5 RNA 2 with U27G, U29C, U53A
B22: target 2 MT 5'PFS UUG 3'PFS AUG (mixed)
RNA 1: B5 RNA 1
RNA 2: B5 RNA 2 with U29G, C52A, C54G
B23: target 2 MT 5'PFS GUC 3'PFS CAA (mixed)
RNA 1: B5 RNA 1
RNA 2: B5 RNA 2 with U27G, U29C, U53A, C54A
B24: target 2 MT 5'PFS AUA 3'PFS AAU (mixed)
RNA 1: B5 RNA 1
RNA 2: B5 RNA 2 with U27A, U29A, C52A, U53A, C54U
B25: target 2 MT 5'PFS CGC 3'PFS UUU (mixed)
RNA 1: B5 RNA 1
RNA 2: B5 RNA 2 with U27C, U28G, U29C, C52U, C54U
B26: target 2 MT 5'PFS UGU 3'PFS AAC (mixed)
RNA 1: B5 RNA 1
RNA 2: B5 RNA 2 with U28G, C52A, U53A
B27: target 2 MT 5'PFS AUA 3'PFS AAC (mixed)
RNA 1: B5 RNA 1
RNA 2: B5 RNA 2 with U27A, U29A, C52A, U53A
B28: target 2 MT 5'PFS UUG 3'PFS AUU (mixed)
RNA 1: B5 RNA 1
RNA 2: B5 RNA 2 with U29G, C52A, C54U
B29: target 2 MT 5'PFS AUA 3'PFS AAA (mixed)
RNA 1: B5 RNA 1
RNA 2: B5 RNA 2 with U27A, U29A, C52A, U53A, C54A
B30: target 2 MT 5'PFS UUG 3'PFS AUA (mixed)
RNA 1: B5 RNA 1
RNA 2: B5 RNA 2 with U29G, C52A, C54A
B31: target 2 MT 5'PFS AUG 3'PFS AAC (mixed)
RNA 1: B5 RNA 1
RNA 2: B5 RNA 2 with U27A, U29G, C52A, U53A
B32: target 2 MT 5'PFS AUA 3'PFS AAG (mixed)
RNA 1: B5 RNA 1
RNA 2: B5 RNA 2 with U27A, U29A, C52A, U53A, C54G
B33: target 2 MT 5'PFS CGA 3'PFS ACU (mixed)
RNA 1: B5 RNA 1
RNA 2: B5 RNA 2 with U27C, U28G, U29A, C52A, U53C, C54U
B34: target 2 MT 5'PFS UUU 3'PFS CUA (mixed)
RNA 1: B5 RNA 1
RNA 2: B5 RNA 2 with C54A
B35: target 2 MT 5'PFS UUU 3'PFS CUU (mixed)
RNA 1: B5 RNA 1
RNA 2: B5 RNA 2 with C54U
B36: target 2 MT 5'PFS CGA 3'PFS ACC (mixed)
RNA 1: B5 RNA 1
RNA 2: B5 RNA 2 with U27C, U28G, U29A, C52A, U53C
B37: target 2 MT 5'PFS GUC 3'PFS ACC (mixed)
RNA 1: B5 RNA 1
RNA 2: B5 RNA 2 with U27G, U29C, C52A, U53C
B38: target 2 MT 5'PFS GCG 3'PFS UAU (mixed)
RNA 1: B5 RNA 1
RNA 2: B5 RNA 2 with U27G, U28C, U29G, C52U, U53A, C54U

Molecular target: T1, EsCas13d, nuclease-dead
Assay: crRNA (strand 1, pre-loaded); Mg2+; 40 mM Tris-HCl pH 7.5, 150 mM NaCl, 6 mM MgCl2, 1 mM DTT, 0.1% Tween-20, 0.2 mg/ml BSA; 25 C; 10 min per concentration, then washed
Settings: tags: His6-TwinStrep-SUMO cleaved; N-terminal SNAP kept (SNAP-Surface 488); label: 3' end held by stalled T7 RNA polymerase

Binder | Kd [nM]
B1 | ~49
B2 | 35 ± 5
B3 | 7.7 ± 0.5
B4 | 45 ± 6
B5 | 8.4 ± 0.9
B6 | 16.1 ± 1.3
B7 | 18.5 ± 2.7
B8 | 10.3 ± 1.4
B9 | 7.6 ± 1
B10 | 10.8 ± 2.6
B11 | 7.7 ± 1
B12 | 20.5 ± 2.1
B13 | 3.5 ± 0.4
B14 | 7.8 ± 1.6
B15 | ~27
B16 | 14.1 ± 1.3
B17 | 17.9 ± 2.4
B18 | 3.7 ± 0.6
B19 | 15.9 ± 2.1

Binder | Kd [nM]
B20 | 6.9 ± 1
B21 | 13.4 ± 2.5
B22 | 13.1 ± 1.5
B23 | 9.8 ± 1.7
B24 | 8.6 ± 1.4
B25 | 17 ± 4
B26 | 24 ± 7
B27 | 5.2 ± 0.9
B28 | 11.9 ± 1
B29 | 5 ± 0.8
B30 | 9.4 ± 0.8
B31 | 18 ± 6
B32 | 5.9 ± 1.4
B33 | 17 ± 7
B34 | 16 ± 3.2
B35 | 8.9 ± 0.8
B36 | ~38
B37 | 28 ± 6
B38 | 14.9 ± 2.4
